Test results from the RNAGym collection of RNA variant scans (doi:10.7554/elife.80360).

B1: Hammerhead Ribozyme (parent)
chain: ACCGGAUGUGCUUUCCGGUCUGAUGAGUCCGUGAGGACGAAACAG

Variants of: B1
Experiment: self-cleavage, relative activity (ratio to wild type); higher = more cleavage; co-transcriptional

Variant | self-cleavage
G10A A42U | 0.38
G10A A42C | 0.406
G10A A42G | 0.288
G10A C20A | 0.451
G10A C20G | 0.303
G10A C20U | 0.543
G10A A34G | 0.836
G10A A34U | 0.919
G10A A34C | 1.2
U9G U32C | 1.21
U9G U32G | 1.07
U9G U32A | 1.31
G10C C30G | 0.675
G10C C30U | 1.28
G10C C30A | 0.989
G10A G22C | 0.32
G10A G22U | 0.319
G10A G22A | 0.352
U9G G25A | 0.205
U9G G25U | 0.242
U9G G25C | 0.383
U9C G31C | 1
U9C G31U | 0.948
U9C G31A | 1.39

Variant | self-cleavage
U9C G45A | 0.78
U9C G45C | 0.648
U9C G45U | 0.591
U9G A37C | 0.805
U9G A37G | 0.983
U9G A37U | 0.611
U9C U28G | 0.808
U9C U28C | 1.08
U9C U28A | 0.717
U9G C11U | 0.342
U9G C11A | 1.47
U9G C11G | 1.17
G10C C38A | 0.79
G10C C38G | 0.582
G10C C38U | 1.16
G10A U28G | 1.15
G10A U28A | 1.12
G10A U28C | 1.37
U9C U24G | 0.948
U9C U24A | 1.29
U9C U24C | 0.94
U9G A40U | 0.304
U9G A40C | 0.423
U9G A40G | 0.366

Variant | self-cleavage
U9G U21G | 0.406
U9G U21C | 0.414
U9G U21A | 0.405
U9G A34G | 1.04
U9G A34U | 0.631
U9G A34C | 0.579
G10C C15U | 1.01
G10C C15A | 0.591
G10C C15G | 0.524
G10A C16U | 0.971
G10A C16G | 0.812
G10A C16A | 1.4
U9G G17A | 0.456
U9G G17C | 0.32
U9G G17U | 0.316
G10A U12C | 1.38
G10A U12A | 0.985
G10A U12G | 1.51
G10A C43A | 0.295
G10A C43G | 0.406
G10A C43U | 0.605
G10A C11A | 1.09
G10A C11U | 1.38
G10A C11G | 1.35

Variant | self-cleavage
U9C G25A | 0.312
U9C G25C | 0.294
U9C G25U | 0.309
U9G U19A | 0.376
U9G U19C | 0.329
U9G U19G | 0.343
G10A U21C | 0.815
G10A U21G | 0.462
G10A U21A | 0.588
G10C A42U | 0.277
G10C A42C | 0.34
G10C A42G | 0.278
G10A A37U | 0.921
G10A A37G | 0.639
G10A A37C | 1.19
U9C G33C | 1.18
U9C G33U | 1.24
U9C G33A | 0.952
U9G G45A | 0.426
U9G G45U | 0.454
U9G G45C | 0.462
G10C C11A | 1.11
G10C C11U | 1.18
G10C C11G | 1.17

Variant | self-cleavage
U9C G36A | 0.511
U9C G36U | 0.683
U9C G36C | 0.82
U9G G18U | 0.4
U9G G18A | 0.393
U9G G18C | 0.364
G10A A41U | 0.386
G10A A41G | 0.359
G10A A41C | 0.306
G10A U19G | 0.464
G10A U19C | 0.675
G10A U19A | 0.347
G10C A26C | 0.447
G10C A26U | 0.851
G10C A26G | 0.304
U9G U24A | 0.928
U9G U24C | 0.919
U9G U24G | 0.671
U9C U14A | 0.872
U9C U14G | 1.29
U9C U14C | 0.518
U9G G10A | 0.891
U9G G10U | 1.05
U9G G10C | 0.987

Variant | self-cleavage
G10A C38U | 1.33
G10A C38G | 0.751
G10A C38A | 0.814
G10C A23C | 0.538
G10C A23U | 0.447
G10C A23G | 0.309
U9G U12A | 1.04
U9G U12C | 1.57
U9G U12G | 0.784
U9G G33U | 0.788
U9G G33A | 0.988
U9G G33C | 0.78
G10C G25U | 0.277
G10C G25C | 0.397
G10C G25A | 0.368
U9C U32C | 1.49
U9C U32G | 0.9
U9C U32A | 0.837
U9G G27A | 0.449
U9G G27C | 0.455
U9G G27U | 0.329
U9G C43A | 0.271
U9G C43G | 0.455
U9G C43U | 0.339

Variant | self-cleavage
U9G A42C | 0.303
U9G A42G | 0.323
U9G A42U | 0.28
U9G G35C | 0.562
U9G G35U | 0.64
U9G G35A | 0.707
G10C C16A | 0.995
G10C C16G | 0.522
G10C C16U | 0.964
G10A U32G | 0.936
G10A U32A | 1.14
G10A U32C | 1.52
G10C G22A | 0.338
G10C G22C | 0.28
G10C G22U | 0.335
G10A | 1.09
G10C | 1.05
G10A A40C | 0.676
G10A A40U | 0.298
G10A A40G | 0.346
G10C C20G | 0.4
G10C C20A | 0.336
G10C C20U | 0.487
